Measured values reported in the DeepSol protein solubility set.

Test: soluble on expression in E. coli; label from the status in PepcDB or PDB records
For “MGSDKIHHHHHHMIERKRYVTMKGHRGGLAVYVNERCSVDEFLDDLELTLADKSVENGRAVPITFFFGRRYVDEGVVTAVESIVARHDSFSFNGYDSECLTKDEAKALYGERTFHYFGGTARSGHVVDVEGSIVVIGDINPGAVVHATGSIYCLGALRGTVHAGKGGNHQAVIAASVLQPKWISISDFVYEDPDDAPIQALDMGCAFVGETGVEFSRLQTVPLARMDQFAIDSERG”, the “soluble on expression in E. coli” value was “not soluble”. In the case of “MGHHHHHHSHMQTLPVASALSSHRTGPPPISPSKRKFSMEPGDEDLDCDNDHVSKMSRIFNPHLNKTANGDCRRDPRERSRSPIERAVAPTMSLHGSHLYTSLPSLGLEQPLALTKNSLDASRPAGLSPTLTPGERQQNRPSVITCASAGARNCNLSHCPIAHSGCAAPGPASYRRPPSAATTCDPVVEEHFRRSLGKNYKEPEPAPNSVSITGSVDDHFAKALGDTWLQIKAAKDGASSSPESASRRGQPASPSAHMVSHSHSPSVVS”, the “soluble on expression in E. coli” value is reported as “not soluble”. For “MGSDKIHHHHHHMFSSPLELFKALTQIPHSSGDTTLMQKFLIQSAQSFGALVSVDSAGNILCQKGDSPRFCLQAHYDMVCVGKAPEIELFEEGGWLRAKDSSLGADNGAALACFLILLKQESSIEILFTNDEEIGMLGAKALELTPSAPLILNVDSESLQEVVISCAGGYDLELEIPATFKETPAEGYLYELSTQNFLGGHSGIDIIKNHPNALVEMAHLLASLPVEILSFEGGEKSNSIPVHAKASLFSSRPLEHLPSWIRATARPLSSPLKALDQTPLLDLLRALHSGIFAYDEESSGVLDSLNISLLKAHEKGWTLTLMGRANDKERLWRNLERARLIARAFGIKEDRLKDFYPPWEKAKSSSYLEKIKEVYERELGVCHVRSIHAGLECAVLQEKLPKAEFISIGPTILHPHSTREALDIKSFERFWEILQIITKVL”, the “soluble on expression in E. coli” value was “not soluble”. With “MGSDKIHHHHHHMHLGKINEDVFNKVIYPHLGERRKEVVVGPQHGVDTGAIDLQDGRVLVVKTDPVFIVPQFGFKKAAWFAVHILASDVMTSGIPPEYAVIDLNLPPRIKDEEFEEMWIGIHEALKEIGVMVVGGHTGVYEGTDYPMVGGFTMFGIGEKERLGMPSKVKVGDSVIMTKGPAIEATGLLTNLYPEYFKQRLSNEIFNEAYNMYWKMSCWKDGLIASRIGIHMMHDATEGGVFGALTEVARASSKGMRIYEERFFINRAVREVTKLVNIDPWISISEGTMIIVTDKGEEVRNTLIREGIEAEIIGEIVDQSGEVTMVKKDGSRVKIEHPLEDPFWRAFFDLASKT” the “soluble on expression in E. coli” value was “not soluble”. In the case of “MSLAPAQRAFSDWQVTCNNQNFCVARNTGDHNGLVMTLSRSAGAHTDAVLRIERGGLKSPDASEGEIAPRLLLDGEPLALSGDKWRISPWLLVTDDTATITAFLQMIQEGKAITLRDGNQTISLSDLKAALLFIDAQQKRVGSETAWIKKGDEPPLSVPPAPALKEVVVVNPTPTPLSLEERNDLLDYGNWRMNGLRCSLDPLRREVNVTALTDDKALMMISCEAGAYNTIDLAWIVSRKKPLASRPVRLRLPFNNGQETNELELMNATFDEKSRELVTLAKGRGLSDCGIQARWRFDGQRFRLVRYAAEPTCDNWHGPDAWPTLWITREGHHHHHH”, the “soluble on expression in E. coli” value is reported as “soluble”. For “MVIRYDKAFIKDFKETDEGYLTITACPITRPGVFPYRRTDGGLSMEAKLPDELFSKATVLSANAKPMTDDHPTEPVTAANYNKYSKGMTHNDAHVLDNKLLVSFTITDAETIKKINDGKRELSIGFQADVSKETGVYNGMQYDSVQRNMQINHIAIVDEGRAGPEVAIRGDSVAFMIDTKDKQTGGNGMSKLIIDSKEFEVDSIVKAKFESLEAKLDAAEQRKANVEKLEGERDALKAQIDKLNKEIDEAKKKEVTADALDKRVQDRVDLINKAQKFLGDSVDFTGKSDREIKESVIAKTSPDFKGDGKSDDYIAAYFDSAVANVEKKGFTNPAAFNDAKDKDKEAAEDIEKQKNNRLNMNKKEDK”, the “soluble on expression in E. coli” value was “not soluble”. In the case of “MKLIFILSIIFLSSLSVAQSPISCAFCMAGLAQINQQVISSPDMEAQMGIQASQGCDQIPVKQTRETCRGSLNTNFNIFYSNFTGQANNSPTQMCINMGMC”, the “soluble on expression in E. coli” value is reported as “not soluble”. In the case of “QVSLRESGGGLVQPGRSLRLSCTASGFTFRHHGMTWVRQAPGKGLEWVASLSGSGTKTHFADSVKGRFTISRDNSNNTLYLQMDNVRDEDTAIYYCAKAKRVGATGYFDLWGRGTLVTVSSASTKGPSVFPLAPSSKSTSGGTAALGCLVKDYFPEPVTVSWNSGALTSGVHTFPAVLQSSGLYSLSSVVTVPSSSLGTQTYICNVNHKPSNTKVDKKAEP”, the “soluble on expression in E. coli” value is reported as “soluble”. In the case of “MSLRQRLTRRDPVSRLPNREQFQSDLYDLADENPGERRVLVLVDAVDMTVAHELTLAMGLAPFETIVRFLAQQLLAYLGRHVRVYHVSVKRFGFLLPAAPGIERFLESLVRRLRRQPPGLELPMIPGVCAGTVEFSTDRDAVPDVLRKAMFALELATLNRSTWAPYDVVRDQAYRRAFNLASDISEALDSGQIYLMFQPRFALPDGAQVSAEALIRWDHPWLGPISPAEFIPVMERNALIHRVTHWVINAVLGKLQAWSDGEVQRLSINLSPQDFEDQDIADVLKAACRRHGIEPHRLEVEITEGAWLRSNPRVLDQLSKIRALGMDVAIDDFGTGYSNFAYLHQIPANVVKLDKSMVTDLESSAQHQKITRSVIALARELGYRTVAEGIESFKCLQMLRTFGCDEAQGYFLARPMVQEKFLARSAAQRFPLQEGHHHHHH”, the “soluble on expression in E. coli” value is reported as “soluble”. With “MTVIVGPKTKPPEAIKDASMARQKQMVNAHYDRLASAKERGEKVAATFVPGNLNELLMCFDMVNNLPEVNAIQNGLRRQSGGYVMEAEKLGHSEDVCTYVKSDIGMMAKGNIGPNGKPLPDPDVLLLSYTGCFTFMKWFELLRRQYKCETIMFQTPYLADGRITKDMISYMVKQLRQDVIPKLERISGVKFDIDRLREYLRKSAKAEDDHVWVLQSAKHKPSPIDAYFGGIYYIGPIFGAFRGTDDAIEYYKFLRAEVEQRIAQGKGPVTPDGDMGQERYRLVVEGPPNYTNFRQFWKMFYDEGAVVVASSYTKVGGTYDYGFRHDPDRPLESLAEYCLNVYTNRNLPMRVDMLENYINEYEADGLLINSIKSCNSFSAGQLLMMREVEKRTGKPAAFIETDLVDPRYFSAANVKNRLESYFQMIEQKRAGFRGAA” the “soluble on expression in E. coli” value was “not soluble”. With “MGHHHHHHSHMALLVRVLRNQTSISQWVPVCSRLIPVSPTQGQGDRALSRTSQWPQMSQSQACGGSEQIPGIDIQLNRKYHTTRKLSTTKDSPQPVEEKVGAFTKIIEAMGFTGPLKYSKWKIKIAALRMYTSCVEKTDFEEFLLRCQMPDTFNSWFLITLLHVWMCLVRMKQEGRSGKYMCRIIVHFMWEDVQQRGRVMGVNPYILKKNMILMTNHFYAAILGYDEGILSDDHGLAAALWRTFFNRKCEDPRHLELLVEYVRKQIQYLDSMNGEDLLLTGEVSWRPLVEKNPQSILKPHSPTYNDEGL” the “soluble on expression in E. coli” value was “not soluble”. With “SANKGQQPPYLHLAELTASQFLDIWKHFDADGNGYIEGKELDNFFSQLEIARRGAGVDPSNAAFKGRMTEFMQKFDKNKDGRIEMSELAQILPTEENFLLCFRQFVGSSTEFMAAWRKYDTDRSGFIEANELKGFLSDLLKKANRHYDDQKLQEYTQTILKMFDLNGDGKLGLSEMARLLPVQENFLLKFQGVRLSAEQFNAIFTYYDKDGNGYIDEQELDALLKDLYEKNNKEVDSKSLTGYKQSIMALSDGGKLYRSELEIVLCRDPML” the “soluble on expression in E. coli” value was “soluble”. With “SEQKSTASGTCGGKPAERGPLAGHMPSSRPHRVDFCWVPGSDPGTFDGSPWLLDRFLAQLGDYMSFHFEHYQDNISRVCEILRRLTGRAQAWAAPYLDGDLPLPDDYELFCQDLKEVVQDPNSFAEYHAVVTCPLPLASSQLPVAPQLPVVRQYLARFLEGLALDMGTAPRSLPAAMATPAVSGSNSVSRSALFEQQLTKESTPGPKEPPVLPSSTCSSKPGPVEPASSQPEEAAPTPVPRLSESANPPAQRPDPAHPGGPKPQKTEEEVLETEGDQEVSLGTPQEVVEAPETPGEPPLSPGF” the “soluble on expression in E. coli” value was “soluble”. In the case of “MSLRLKTILLTTMATGSFLCEPVAAMCIEPPATPDMGWFLKKKKKSNPQDSIKVKNEYEKLTGSDSVVRRGMFNVYQKKNDYYFEIPSTLLERDMLVVNKLQRVPAELNEAGVNRGTNYENQMIRFELDKSANKLLIRQSRPLPISPSEDAISQSVKDNYISPLIAGFKVEAYNNDSTSILIKVNDIYDGTETSINNVFTNINLGTSAIKNLSRILSIKSFDNNVVATSELTTRVTEGTTTIYVTVEVSSSILLLPEVPMTGRLDNPRVGYFTNPLTNFSDGQQRVNKKQFITRWRLEPRPEDRAAYLRGELVEPRKPIVFYIENSTPYRWRKYIKQGIEDWQVAFERAGFKNAIIAKDITEDMEVDMDDVNYSVLTYAASTKANAMGPSILDPRSGEILEADIMWWHNVLSMLQEWITVQTGVVRPEAREGHHHHHH”, the “soluble on expression in E. coli” value is reported as “not soluble”. In the case of “GSHMASMTGGQQMGRGSDSSNAITIENNTLWTGAKPSANCVIKEGEDSPDCKLTLVLVKNGGLINGYITLMGASEYTNTLFKNNQVTIDVNLAFDNTGQIITYLSSLKSNLNFKDNQNMATGTITSAKGFMPSTTAYPFITYATETLNEDYIYGECYYKSTNGTLFPLKVTVTLNRRMLASGMAYAMNFSWSLNAEEAPETTEVTLITSPFFFSYIREDD”, the “soluble on expression in E. coli” value is reported as “soluble”. For “MSRDPTLILDESNLVIGKDGRVHYTFTTEDDNPKVRLASKCLGTAHFNQLMIERGDQATSYVAPVVVEGTGNPTGLFKDLKEISLELTDTANSQLWSKIKLTNRGMLQEYYDGKIKTEIVNSARGVATRISEDTDKKLALINDTIDGIRREYRDADRKLSASYQAGIEGLKATMANDKIGLQAEIKASAQGLSQKYDDELRKLSAKITTTSSGTTEAYESKLAGLRAEFTRSNQGTRTELESQISGLRAVQQSTASQISQEIRDREGAVSRVQQSLESYQRRMQDAEENYSSLTHTVRGLQSDVGSPTGKIQSRLTQLAGQIEQRVTRDGVMSIISGAGDSIKLAIQKAGGINAKMSGNEIISAINLNSYGVTIAGKHIALDGNTTVNGTFTTKIAEAIKIRADQIIAGTIDAARIRVINLNASSIVGLDANFIKAKIGYAITDLLEGKVIKARNGAMLIDLNTAKMDFNSDATINFNSKNNALVRKDGTHTAFVHFSNATPKGYTGSALYASIGITSSGDGVNSASSGRFAGLRSFRYATGYNHTAAVDQTEIYGDNVLVVDDFNITRGFKFRPDKMQKMLDMNDLYAAVVALGRCWGHLANVGWNTAHSNFTSAVNRELNNYITKI”, the “soluble on expression in E. coli” value was “not soluble”. With “MGSDKIHHHHHHMSELIEVTHLTFTYTGQAAPALKDVSLTIHAGEFITLVGATGSGKTTLLKQLKHELWPAGERTGSLTFQDTAIQALSPVESAQQIGYVAQDPQVQPIMATVMEELAFPLENLGYPTATINDRIAEIANYLDLNHLLQRAIETLSGGQLQLVNLASVLALKPQVILLDESTAQLDPTTAQKFLNILQQVHDELDLTIVLTEHRLSRVMALTDRVALLANGQVLTVAEPTPALQQMAATPALQAFVPPVPHFFLDHNLVVTPLPLSVTMGRRALRQSSWRFQAVTTRQPAQSGPRESVLVATGVSFHYPTTGDILHQVELQVATGDWLAIIGKNGSGKSTLLTVLAGLQKPQHGKVRLNQQVIWRMKNQDRVLQVGYLSQNPTEQFNGDSVREELTAQAQLRGTSVAQRVDQMLIRCHLTAVADQNSFDLSGGQQQLLGLGLALMTEPQVLLLDEPTKGLDPDTKLRIGQLLQQAHETGLTIIMASHDMDFSAQFADTCTFMFNGRVNPPQATRLFFTQNFLATTAVNRLLRQQVPQALFSQDVVRTDKGGE” the “soluble on expression in E. coli” value was “not soluble”. With “MAGKVKWVTDIEKSVLINNFEKRGWIQVTDSEDWNFYWMSIQTIRTVFSVDTGYRLTDDQMVNHFPNHYELTRKDLMIKNIKRYRRELEKENSALAEKDDSGKYIYLDFVPVTFMLPADYNLFVEEFRKSPSSTWIMKPCGKAQGKGIFLINKLSQIKKWSRDSRTSTFVAANSGKEAYVISLYIDNPLLIGGKKFDLRLYVLVTTYRPLKCYMWVQESSE” the “soluble on expression in E. coli” value was “not soluble”. With “MRILVSCANGSGTSLMMMRSVEKAMKELGVPITKIHHCAISEGKSSASQYDVVFTPVNFLQMFQQAEKRGVTVIGIKNVMSAKEIQEKYMASDRYQKSE” the “soluble on expression in E. coli” value was “not soluble”.
